Experimental data published in publication PMC7543661, “The crystal structure of the tetrameric human vasohibin-1–SVBP complex reveals a variable arm region within the structural core” (Acta Crystallographica. Section D, Structural Biology, 2020).

B1: human small vasohibin-binding protein (SVBP) (amino acids 2–66) (natural protein, UniProt Q8N300 2-66, looked up)
chain: DPPARKEKTKVKESVSRVEKAKQKSAQQELKQRQRAEIYALNRVMTELEQQQFDEFCKQMQPPGE
notes: the final model holds amino acids 26-53 (chain B); Expressed at the C-terminal end of the fusion MBP-His6-5xTEV-VASH1(56-310)-2xTEV-SVBP(2-66) and set free by TEV protease; Residues of the TEV site may be left at its N-terminus; source: E. coli One Shot BL21 Star (DE3) pLysS, purified (HisTrap FF, SP Sepharose, TEV cleavage, SP Sepharose, Superdex 200)
B2: human VASH1 core (VASH1c) region (amino acids 56–310) (domain or fragment)
chain: not shown
notes: vasohibin-1 (VASH1), human, core region, amino acids 56-310; the final model holds amino acids 56-304 (chain A); cut with TEV protease before crystallisation; Residues of the TEV sites may be left at the ends; also called vasohibin-1; source: E. coli One Shot BL21 Star (DE3) pLysS, purified (HisTrap FF, SP Sepharose, TEV cleavage, SP Sepharose, Superdex 200); not shown: MBP, N-terminal, cleaved; …

Key:
[1] = target: B2; test: crystal structure; purified VASH1c–SVBP complex (17.7 mg/ml), sitting-drop vapor diffusion at 20°C, 0.16 M ammonium sulfate, 0.08 M sodium acetate pH 4.6, 20% PEG 4000, 20% glycerol; space group P6(1)22, 2.3 Å; heterotetramer formed by a crystallographic twofold axis; conditions: both partners purified
[2] = target: the molecule itself; test: as above

Row | binding result [1] | Binder | binding result [2]
1 | binds | B1 | 
2 |  | B2 | binds
